Common to all, as to assay: ITC
In general terms: Isothermal titration calorimetry measures the heat released or taken up as one component is titrated into another.

Assay [1] addresses Bromo1-linker(GGS)5-Bromo2 of BRD4 (UniProt O60885 54-168; O60885 351-457).
In assay [2] the target is BRD2_(bromo1) (amino acids 73–194) (UniProt P25440 73-194).
Assay [3] deals with BRD3_(bromo1) (amino acids 24–144) (UniProt Q15059 24-144).
In assay [4] the target is BRD3_(bromo2) domain (amino acids 306–416) (UniProt Q15059 306-416).
Assay [5] deals with BRD2_(bromo2) domain (amino acids 455–347) (UniProt P25440 347-455).

Where no end group is shown, it is not given here.

A word on the Kd: it is the free concentration of one partner at which half of the binding sites on the other are occupied at equilibrium, for simple one-to-one binding. Low values mean a tighter complex, high ones a looser complex.

Chain of BRD2_(bromo2) domain (amino acids 455–347) (P25440 347-455): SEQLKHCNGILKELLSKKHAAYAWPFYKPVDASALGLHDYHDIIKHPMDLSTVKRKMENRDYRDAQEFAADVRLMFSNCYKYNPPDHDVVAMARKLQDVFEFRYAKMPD
Chain of BRD3_(bromo2) domain (amino acids 306–416) (Q15059 306-416): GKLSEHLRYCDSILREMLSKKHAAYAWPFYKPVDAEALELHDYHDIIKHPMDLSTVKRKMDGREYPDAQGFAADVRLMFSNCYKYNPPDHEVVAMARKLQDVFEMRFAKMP
Chain of BRD3_(bromo1) (amino acids 24–144) (Q15059 24-144): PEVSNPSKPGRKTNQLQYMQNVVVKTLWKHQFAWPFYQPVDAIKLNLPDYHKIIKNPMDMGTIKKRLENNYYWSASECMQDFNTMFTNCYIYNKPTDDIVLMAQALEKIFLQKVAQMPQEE
Chain of BRD2_(bromo1) (amino acids 73–194) (P25440 73-194): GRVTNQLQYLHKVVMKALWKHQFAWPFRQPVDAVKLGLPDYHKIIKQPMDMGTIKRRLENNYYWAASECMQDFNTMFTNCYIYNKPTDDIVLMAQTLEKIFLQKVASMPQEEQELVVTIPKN

For AGGK(Ac)AGK(Ac)DSGK(Ac)AKTKC (also: cross-linked via C-terminal cysteine) [H2A.ZK4ac7ac11ac peptides cross-linked by a C-terminal cysteine], the Kd in assay [1] is 350 µM.
With AGGK(Ac)AGK(Ac)DSGK(Ac)AKTK [tri-acetylated H2A.Z (1–15) K4acK7acK11ac peptide], the Kd stood at 2600 µM in assay [2], 1500 µM in assay [3], 1800 µM in assay [4] and 2000 µM in assay [5].

The values above are taken from publication PMC9033776 (2022).
